Laboratory results taken from patent US20120316071A1 (published 2012).
Positions count from the first letter of the chain named. Numbers in names are those of the source.

Experiments:
[1] = target: T1, rHuman HGF R/c-MET/Fc Chimera, CF (R&D Systems Cat#358-MT/CF) (human, UniProt P08581 25-932); assay: ECL Multispot (MSD), antigen spotted on plate, Fab in solution; blank spot 256
[2] = target: T2, rHuman Notch-1/Fc Chimera, CF (R&D Systems Cat#3647-TK) (human); assay: as above
T2 chain: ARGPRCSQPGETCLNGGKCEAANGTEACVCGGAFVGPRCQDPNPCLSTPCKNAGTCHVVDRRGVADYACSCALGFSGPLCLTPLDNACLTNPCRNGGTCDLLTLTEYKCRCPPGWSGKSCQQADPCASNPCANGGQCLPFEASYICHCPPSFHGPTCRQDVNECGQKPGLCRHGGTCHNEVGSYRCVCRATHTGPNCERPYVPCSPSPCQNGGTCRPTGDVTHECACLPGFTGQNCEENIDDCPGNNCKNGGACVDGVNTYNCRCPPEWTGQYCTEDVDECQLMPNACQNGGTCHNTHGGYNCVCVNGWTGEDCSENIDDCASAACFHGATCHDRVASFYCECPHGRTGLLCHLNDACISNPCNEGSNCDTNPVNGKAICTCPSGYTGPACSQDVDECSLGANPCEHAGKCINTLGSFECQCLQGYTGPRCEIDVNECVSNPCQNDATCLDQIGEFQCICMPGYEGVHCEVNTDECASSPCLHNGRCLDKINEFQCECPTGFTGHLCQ

[3] = target: T3, rHuman CD44/Fc Chimera, CF (R&D Systems Cat#3660-CD) (human, UniProt P16070 21-220); assay: as above
[4] = target: T4, rHuman P-Cadherin/Fc Chimera, CF (R&D Systems Cat#861-PC) (human, UniProt P22223 108-654); assay: as above
[5] = target: T5, rHuman Erythropoietin R/Fc Chimera, CF (R&D Systems Cat#963-ER) (human, UniProt P19235 25-250); assay: as above
[6] = target: T1, rHuman HGF R/c-MET/Fc Chimera, CF (R&D …); assay: ECL Multispot (MSD), antigen spotted on plate, Fab in solution; blank spot 169
[7] = target: T2, rHuman Notch-1/Fc Chimera, CF (R&D …); assay: as above
[8] = target: T3, rHuman CD44/Fc Chimera, CF (R&D Systems …); assay: as above
[9] = target: T4, rHuman P-Cadherin/Fc Chimera, CF (R&D …); assay: as above
[10] = target: T5, rHuman Erythropoietin R/Fc Chimera, CF …; assay: as above
[11] = target: T1, rHuman HGF R/c-MET/Fc Chimera, CF (R&D …); assay: ECL Multispot (MSD), antigen spotted on plate, Fab in solution; blank spot 479
[12] = target: T2, rHuman Notch-1/Fc Chimera, CF (R&D …); assay: as above
[13] = target: T3, rHuman CD44/Fc Chimera, CF (R&D Systems …); assay: as above
[14] = target: T4, rHuman P-Cadherin/Fc Chimera, CF (R&D …); assay: as above
[15] = target: T5, rHuman Erythropoietin R/Fc Chimera, CF …; assay: as above
[16] = target: T2, rHuman Notch-1/Fc Chimera, CF (R&D …); assay: ECL Multispot (MSD), antigen spotted on plate, Fab in solution; blank spot 331
[17] = target: T3, rHuman CD44/Fc Chimera, CF (R&D Systems …); assay: as above
[18] = target: T4, rHuman P-Cadherin/Fc Chimera, CF (R&D …); assay: as above
[19] = target: T5, rHuman Erythropoietin R/Fc Chimera, CF …; assay: as above
[20] = target: T1, rHuman HGF R/c-MET/Fc Chimera, CF (R&D …); assay: ECL Multispot (MSD), antigen spotted on plate, Fab in solution; blank spot 438
[21] = target: T2, rHuman Notch-1/Fc Chimera, CF (R&D …); assay: as above
[22] = target: T3, rHuman CD44/Fc Chimera, CF (R&D Systems …); assay: as above
[23] = target: T4, rHuman P-Cadherin/Fc Chimera, CF (R&D …); assay: as above
[24] = target: T5, rHuman Erythropoietin R/Fc Chimera, CF …; assay: as above
[25] = target: T1, rHuman HGF R/c-MET/Fc Chimera, CF (R&D …); assay: ECL Multispot (MSD), antigen spotted on plate, Fab in solution; blank spot 200
[26] = target: T2, rHuman Notch-1/Fc Chimera, CF (R&D …); assay: as above
[27] = target: T3, rHuman CD44/Fc Chimera, CF (R&D Systems …); assay: as above
[28] = target: T4, rHuman P-Cadherin/Fc Chimera, CF (R&D …); assay: as above
[29] = target: T5, rHuman Erythropoietin R/Fc Chimera, CF …; assay: as above
[30] = target: T1, rHuman HGF R/c-MET/Fc Chimera, CF (R&D …); assay: ECL Multispot (MSD), antigen spotted on plate, Fab in solution; blank spot 239
[31] = target: T2, rHuman Notch-1/Fc Chimera, CF (R&D …); assay: as above
[32] = target: T3, rHuman CD44/Fc Chimera, CF (R&D Systems …); assay: as above
[33] = target: T4, rHuman P-Cadherin/Fc Chimera, CF (R&D …); assay: as above
[34] = target: T5, rHuman Erythropoietin R/Fc Chimera, CF …; assay: as above

T1 sequence (P08581 25-932, change not shown): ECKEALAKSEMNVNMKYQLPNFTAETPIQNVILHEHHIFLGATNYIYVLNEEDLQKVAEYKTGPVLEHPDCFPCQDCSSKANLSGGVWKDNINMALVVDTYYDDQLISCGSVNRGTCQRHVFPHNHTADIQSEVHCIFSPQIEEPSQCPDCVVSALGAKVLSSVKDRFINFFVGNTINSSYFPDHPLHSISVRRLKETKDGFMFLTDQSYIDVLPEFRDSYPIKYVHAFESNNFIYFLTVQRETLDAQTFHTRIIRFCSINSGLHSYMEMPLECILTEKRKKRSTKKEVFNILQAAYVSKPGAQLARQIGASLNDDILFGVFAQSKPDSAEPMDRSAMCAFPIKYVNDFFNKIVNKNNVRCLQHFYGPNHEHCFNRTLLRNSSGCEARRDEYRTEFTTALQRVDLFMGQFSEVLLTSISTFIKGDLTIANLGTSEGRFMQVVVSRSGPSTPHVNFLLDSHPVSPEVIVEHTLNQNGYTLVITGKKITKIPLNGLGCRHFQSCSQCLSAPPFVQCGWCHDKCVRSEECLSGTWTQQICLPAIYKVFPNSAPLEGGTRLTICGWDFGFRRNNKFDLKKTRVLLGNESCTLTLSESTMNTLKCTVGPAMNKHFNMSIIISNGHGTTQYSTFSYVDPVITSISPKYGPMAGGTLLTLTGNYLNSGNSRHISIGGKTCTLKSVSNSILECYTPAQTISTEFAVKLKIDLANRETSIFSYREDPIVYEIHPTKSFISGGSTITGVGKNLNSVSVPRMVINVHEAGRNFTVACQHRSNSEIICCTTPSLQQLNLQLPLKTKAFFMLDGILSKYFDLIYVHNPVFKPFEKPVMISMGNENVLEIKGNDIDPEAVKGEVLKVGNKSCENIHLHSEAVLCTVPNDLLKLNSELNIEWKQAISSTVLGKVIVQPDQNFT

B1: Fab VH1-46_IGHD6-6*01_IGHJ1*01 S102A/S103P/S104F/H111F (APFF) & L6_IGKJ1*01 W94R (Fab, V domains shown)
VH: QVQLVQSGAEVKKPGASVKVSCKASGYTFTSYYMHWVRQAPGQGLEWMGIINPSGGSTSYAQKFQGRVTMTRDTSTSTVYMELSSLRSEDTAVYYCAREEYAPFSAEYFQFWGQGTLVTVSS
VL: EIVLTQSPATLSLSPGERATLSCRASQSVSSYLAWYQQKPGQAPRLLIYDASNRATGIPARFSGSGSGTDFTLTISSLEPEDFAVYYCQQRSNRPPWTFGQGTKVEIKR
notes: also called APFF / W94R
- ECL signal [1]: 293
- ECL signal [2]: 375
- ECL signal [3]: 443
- ECL signal [4]: 364
- ECL signal [5]: 546

B2: Fab VH1-46_IGHD6-6*01_IGHJ1*01 S102A/S103P/S104F/H111F (APFF) & L6_IGKJ1*01 W94P (Fab, V domains shown)
VH: B1 VH
VL: B1 VL with R94P
notes: also called APFF / W94P
- ECL signal [6]: 275
- ECL signal [7]: 228
- ECL signal [8]: 241
- ECL signal [9]: 268
- ECL signal [10]: 292

B3: Fab VH1-46_IGHD6-6*01_IGHJ1*01 S102A/S103P/S104F/H111F (APFF) & L6_IGKJ1*01 W94S (Fab, V domains shown)
VH: B1 VH
VL: B1 VL with R94S
notes: also called APFF / W94S
- ECL signal [11]: 453
- ECL signal [12]: 486
- ECL signal [13]: 469
- ECL signal [14]: 466
- ECL signal [15]: 506

B4: Fab VH1-46_IGHD6-6*01_IGHJ1*01 S102A/S103P/S104F/H111F (APFF) & L6_IGKJ1*01 N93H (Fab, V domains shown)
VH: B1 VH
VL: B1 VL with N93H, R94W
notes: also called APFF / N93H
- ECL signal [16]: 342
- ECL signal [17]: 345
- ECL signal [18]: 293
- ECL signal [19]: 425

B5: Fab VH1-46_IGHD6-6*01_IGHJ1*01 S102A/S103P/S104F/H111F (APFF) & L6_IGKJ1*01 W94T (Fab, V domains shown)
VH: B1 VH
VL: B1 VL with R94T
notes: also called APFF / W94T
- ECL signal [20]: 377
- ECL signal [21]: 418
- ECL signal [22]: 453
- ECL signal [23]: 481
- ECL signal [24]: 432

B6: Fab VH1-46_IGHD6-6*01_IGHJ1*01 S102A/S103P/S104F/H111F (APFF) & L6_IGKJ1*01 W94L (Fab, V domains shown)
VH: B1 VH
VL: B1 VL with R94L
notes: also called APFF / W94L
- ECL signal [25]: 187
- ECL signal [26]: 369
- ECL signal [27]: 309
- ECL signal [28]: 296
- ECL signal [29]: 333

B7: Fab VH1-46_IGHD6-6*01_IGHJ1*01 S102A/S103P/S104F/H111F (APFF) & L6_IGKJ1*01 N93Q (Fab, V domains shown)
VH: B1 VH
VL: B1 VL with N93Q, R94W
notes: also called APFF / N93Q
- ECL signal [30]: 309
- ECL signal [31]: 310
- ECL signal [32]: 452
- ECL signal [33]: 304
- ECL signal [34]: 477
